The labels stand for the following.
T1: native human ESRRG protein (Estrogen-receptor related receptor gamma) (human, UniProt P62508 229-458, limits assumed)
T1 construct: the screened protein is called 'native human ESRRG protein'; also called ESSRG; ERRγ
T1 sequence (looked up): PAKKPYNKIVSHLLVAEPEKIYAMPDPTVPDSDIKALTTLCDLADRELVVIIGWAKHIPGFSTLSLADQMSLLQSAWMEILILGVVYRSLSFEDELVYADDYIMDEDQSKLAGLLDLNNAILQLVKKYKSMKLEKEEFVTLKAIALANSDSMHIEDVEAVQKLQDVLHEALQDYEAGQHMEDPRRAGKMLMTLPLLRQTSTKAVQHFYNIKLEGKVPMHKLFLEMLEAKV

Here are results for 23 molecules from patent publication US20130053541A1, “METHODS FOR DISCOVERING MOLECULES THAT BIND TO PROTEINS” (LYNNTECH, INC., priority 2011, published 2013).

Where no end group is shown, it is not given here.

By Kd is commonly meant a measure of binding affinity in units of concentration. Higher therefore signals lower affinity.

In one assay the target is T1, native human ESRRG protein …. Nature of the assay: custom peptide microarray density chip.
Molecule Ac-NNSWRLHL yielded a Kd of 29.4 nM.

Take Ac-VLLHYGLY: the Kd is 27.4 nM.

Molecule Ac-ANNIRLLH gave a dissociation constant Kd of 18.9 nM. On the same count and under the same terms, for Ac-ANNLRLLH the value was 28.9 nM.

Consider Ac-ANNVRLLH, for which the affinity, expressed as Kd, was 30.5 nM.

In the case of Ac-QYPKMQRL, binding was put at a Kd of 17.9 nM. Molecule Ac-FYNMYLLN had a Kd of 27.4 nM. Still for that read-out and setting: for Ac-LYLLKHHP the value was 29.1 nM; for Ac-AIRLFLMG, 13.8 nM; for Ac-NIKLFANN, 24.7 nM. On the same count and under the same terms, for Ac-NSLRKHLL the value was 24.4 nM; for Ac-NSLKKHLL, 18.3 nM; for Ac-SLLFHLLK, 26.7 nM.

With Ac-VQYNYLQR, the affinity, expressed as Kd, was 19.3 nM. On to Ac-IFSEIRVY, for which the Kd was found to be 16.1 nM.

In turn, Ac-IFSEMRVY came in with an equilibrium dissociation constant (Kd) of 7.88 nM. Same read-out and setting: for Ac-IFSKIRVY the value was 15.6 nM.

As for Ac-FWKGHFDF, the Kd was 9.16 nM. Still for that read-out and setting: the same measure for Ac-IFSYVRVY: 15.4 nM.

On to Ac-IFSYPRVY, for which binding was characterised by a dissociation constant (Kd) of 17.5 nM.

The next assay has the same target. Nature of the assay: peptide microarray, Iteration 1; bound ESRRG detected with fluorescent anti-ESRRG mAb. As to the method: Screening was carried out typically by hybridization of the protein (1 μg/mL) against the array for 1 h at 4° C.; detection of bound protein was carried out using a fluorescently labeled anti-ESRRG mAb. (Direct labeling of ESRRG and alternative detection strategies are equally valid).
Daughter candidate ligands and their new Tier 3 and/or Tier 1 based combinations were synthesized in situ on an addressable peptide microarray and screened against native human ESRRG protein in order to determine sequences that bind to this protein. Bound protein was detected by a fluorescently labeled anti-ESRRG mAb. […] Excess (100×) competing biological matrices (human serum, HSA/BSA or bacterial protein extract) were used as backgrounds to select for specific ligands to the protein. Other competing proteins can be added to background for specificity selection and directed evolution of ligands.
For Ac-NSLSWHLL, the “Sample B (Probe) Signal” value was 1040 fluorescence intensity units and the “log2 (Sample B/Sample A)” value is 5.34. Taken in the same sequence, the figures for Ac-RKAIFGKY were 818 fluorescence intensity units and 5.11. In the same order, the values of Ac-NSLRKHLL are 856 fluorescence intensity units and 5.36. In the same order, the values of Ac-NSLKKHLL are 9220 fluorescence intensity units and 10.8. Consider Ac-RKALVGKY, for which the “Sample B (Probe) Signal” value is 868 fluorescence intensity units and the “log2 (Sample B/Sample A)” value turned out to be 4.95.

A further assay has the same target. Nature of the assay: peptide microarray, Iteration 2; bound ESRRG detected with fluorescent anti-ESRRG mAb. The essentials:
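Second-round array of peptides derived from the 10 strongest first-round ESRRG binders: central two residues held fixed, positions 2, 3, 6 and 7 permuted. Native ESRRG (1 μg/mL) hybridised to array 1 h at 4 °C; binding detected with fluorescently labelled anti-ESRRG mAb.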
For the molecule Ac-VLLHYGLY, the “Sample B (Probe) Signal” value was 1800 fluorescence intensity units and the “log2 (Sample B/Sample A)” value was found to be 2.37. In the same order, the values of Ac-FYNMYLLN are 1560 fluorescence intensity units and 2.63. Taken in the same sequence, the figures for Ac-LYLLKHHP were 2530 fluorescence intensity units and 3.05. In the same order, the values of Ac-FWKGHFDF are 1460 fluorescence intensity units and 2.66.
